No end group written: not given here. SUMO = small ubiquitin-like modifier

One data set deals with dansylated CaM7 (Arabidopsis thaliana, UniProt P59220 1-149, dansyl (labelled with dansyl chloride; sites not stated)). Nature of the data set: other fluorescence titration.
The data set “SEC” concerns the molecule itself. Nature of the data set: SEC.

In the data set with dansylated CaM7, {SUMO}-IKKCAAVTETVLAAVYKALN (domain or fragment, not fully specified) [SUMO-AtFBA5 CaMBD (residues 194-213)] displayed a Kd of 290 ± 130 nM.

B1: SUMO-AtFBA4 (Arabidopsis fructose bisphosphate aldolase 4 with N-terminal His-SUMO tag) (enzyme, Arabidopsis thaliana, UniProt F4KGQ0 1-393, looked up)
chain: MSCFKSKFAGKSYFRRTFHSSIIQFHPQLSILIWHRRYSIIRTYELIANAAYIGTPGKGILAADESTGTIGKRFVSINVENVESNRRALRELLFTTPGALQYISGIILFEETLYQKTASGKLFVDVMKEAGVLPGIKVDKGTVELAGTNGETTTTGLDGLGDRCKKYYEAGARFAKWRAVLKIGNNEPSELAIHENAYGLARYAVICQENGLVPIVEPEILVDGSHDIEKCAYVTERVLAACYKALSDHHVILEGTLLKPNMVTPGSDSGSKVKPEVIAKHTVRALQRTVPAAVPAVVFLSGGQSEEEATVNLNAINQLKGKKPWSLTFSYGRALQQSTLKAWGGKEENVDKAQKAFLARAKANSEATLGGYKGDAQLGEGASESLHVKDYKY
In the case of B1, in “SEC”, the “stoichiometry N” value amounted to 4.

B2: SUMO-AtFBA5 (Arabidopsis fructose bisphosphate aldolase 5 with N-terminal His-SUMO tag) (enzyme, Arabidopsis thaliana, UniProt O65581 1-358, looked up)
chain: MSAFVGKYADELIKTAKYIATPGKGILAADESTGTIGKRFASINVENIESNRQALRELLFTSPGTFPCLSGVILFEETLYQKTTDGKPFVELLMENGVIPGIKVDKGVVDLAGTNGETTTQGLDSLGARCQEYYKAGARFAKWRAVLKIGATEPSELSIQENAKGLARYAIICQENGLVPIVEPEVLTDGSHDIKKCAAVTETVLAAVYKALNDHHVLLEGTLLKPNMVTPGSDSPKVAPEVIAEYTVTALRRTVPPAVPGIVFLSGGQSEEEATLNLNAMNKLDVLKPWTLTFSFGRALQQSTLKAWAGKTENVAKAQATFLTRCKGNSDATLGKYTGGASGDSAASESLYEEGYKY
In turn, B2 showed a Kd with dansylated CaM7 of 190 nM. Besides, the “stoichiometry N” value in the data set “SEC” came to 4.

For the origin of these results see doi:10.1101/2024.03.29.587371 (bioRxiv, 2024).
